For test [1], the target named is huTIM-3/his (human) (UniProt Q8TDQ0). Description: Biacore sequential injection; value belongs to the 2nd antibody huIgG1; competitor (1st antibody) ABTIM3-hum11. On the technique in general: In SPR one partner is held on a chip, and binding of the other changes the refractive index at the surface.
For test [2] the target is unchanged. Description: Biacore sequential injection; value belongs to the 2nd antibody huIgG1; competitor (1st antibody) ABTIM3-hum21.
Test [3] shares this target. Kind of test: Biacore, hTIM-3/his captured by anti-His antibody on a CM5 chip; first injection.
The target is the same in test [4]. Kind of test: Biacore sequential injection; value belongs to the 2nd antibody huIgG1; competitor (1st antibody) ABTIM3-hum03.
Test [5] shares this target. Kind of test: Biacore sequential injection; value belongs to the 2nd antibody huIgG1; competitor (1st antibody) huIgG1.

With huIgG1 (antibody), the change in RU (2nd antibody injection) with huTIM-3/his (human) [1] is 3.8 RU; with huTIM-3/his (human) [2] it was 4.5 RU; with huTIM-3/his (human) [4], 4.5 RU; with huTIM-3/his (human) [5] it was 3.6 RU. Also, the change in RU (1st antibody injection) with huTIM-3/his (human) [3] was 0.27 RU.

The values are drawn from patent US20220133889A1.
